From patent publication US20220387578A1

B1: rFluA-20 heavy chain mutant Y34A (antibody, V domains shown)
VH: QVQLQESGPGLVKPSETLSLTCSVSGVSVTSDIAYWTWIRQPPGKGLEWIGYIFYNGDTNYNPSLKSRVTMSIDTSKNEFSLRLTSVTAADTAVYFCARGTEDLGYCSSGSCPNHWGQGTLVTVSS
VL: DIQMTQSPSSLSASIGDRVTITCRPSQNIRSFLNWFQHKPGKAPKLLIYAASNLQSGVPSRFSGSGSGTEFTLTIRSLQPEDFATYYCQQSYNTPPTFGQGTKVEIK
B2: rFluA-20 heavy chain mutant T96A (antibody, V domains shown)
VH: QVQLQESGPGLVKPSETLSLTCSVSGVSVTSDIYYWTWIRQPPGKGLEWIGYIFYNGDTNYNPSLKSRVTMSIDTSKNEFSLRLTSVTAADTAVYFCARGAEDLGYCSSGSCPNHWGQGTLVTVSS
VL: DIQMTQSPSSLSASIGDRVTITCRPSQNIRSFLNWFQHKPGKAPKLLIYAASNLQSGVPSRFSGSGSGTEFTLTIRSLQPEDFATYYCQQSYNTPPTFGQGTKVEIK
B3: rFluA-20 heavy chain mutant E97A (antibody, V domains shown)
VH: QVQLQESGPGLVKPSETLSLTCSVSGVSVTSDIYYWTWIRQPPGKGLEWIGYIFYNGDTNYNPSLKSRVTMSIDTSKNEFSLRLTSVTAADTAVYFCARGTADLGYCSSGSCPNHWGQGTLVTVSS
VL: DIQMTQSPSSLSASIGDRVTITCRPSQNIRSFLNWFQHKPGKAPKLLIYAASNLQSGVPSRFSGSGSGTEFTLTIRSLQPEDFATYYCQQSYNTPPTFGQGTKVEIK

Tests used:
[1] = biological target: H1 HA A/Solomon Islands/03/2006 (H1N1), recombinant soluble trimer (influenza A virus)
[2] = biological target: H3 HA A/Texas/50/2012, recombinant soluble trimer (influenza A virus)
[3] = biological target: H1 HA A/Texas/36/1991 (H1N1), recombinant soluble trimer (influenza A virus)

Binder	EC50 [1]	EC50 [2]	EC50 [3]
B1	0.04 mg/L	0.16 mg/L	0.05 mg/L
B2	0.03 mg/L	0.07 mg/L	0.04 mg/L
B3	0.07 mg/L	0.18 mg/L	0.05 mg/L
